Experiment: soluble on expression in E. coli; label from the status in PepcDB or PDB records

Row | Sequence | soluble on expression in E. coli
1 | MTHDNIDILVVDDDISHCTILQALLRGWGYNVALANSGRQALEQVREQVFDLVLCDVRMAEMDGIATLKEIKALNPAIPVLIMTAYSSVETAVEALKTGALDYLIKPLDFDNLQATLEKALAHTHSIDAETPAVTASQFGMVGKSPAMQHLLSEIALVAPSEATVLIHGDSGTGKELVARAIHASSARSEKPLVTLNCAALNESLLESELFGHEKGAFTGADKRREGRFVEADGGTLFLDEIGDISPMMQVRLLRAIQEREVQRVGSNQIISVDVRLIAATHRDLAAEVNAGRFRQDLYYRLNVVAIEVPSLRQRREDIPLLAGHFLQRFAERNRKAVKGFTPQAMDLLIHYDWPGNIRELENAVERAVVLLTGEYISERELPLAIASTPIPLGQSQDIQPLVEVEKEVILAALEKTGGNKTEAARQLGITRKTLLAKLSR | soluble
2 | MAHHHHHHMLRNALSCFLEQLELARLTETLPSNIDYAELVAMVQQRLQGAPGKTLGVFEHLRAKEIRLPEPDNPDYAVASMSAPLTVFLFDIEGTTTPLPFVQKVLMPLAESRVEAYMAAHFPADQAFVDLLTAAAERPSSPLAKAQTAYSKAFTDALATSGARDWKDEAANEVTRSDFCAFFHHQIKRGADHAAVKVVQAAIWAEVFAEGKLQSPVFPDVNTFFRFVGGPAMAERTRIALYSSGSVAAQKLVMGHTSYGDLNPFITAYFDPLLVGTKLMPKSYMKIRTLLVEQLDIPPESMHIVFVTDNTSEASAAETSGAVESAILCVRPLNDWITFDTMLSINVPYIMSFTQLMQRNCVVDMAKLVSDTKECIKQHNIS | soluble
3 | GPGSMPNPYTGNYEAARFVEYYASAQMLRDSVHRLHTVSIQRHMDALRRAESAHQKHTCPAAPIRSRQQIEEHANRMVYQEMLRRQKNMTKLAWDVYKPVPPKRLSSEELRSLVKRMYEQQMQNMTERKKEARQRQVVLSDEVLAETRRGRRMLRQRDIHRSLESGWRTPSSRAKYNDGKLLLVSGGNVKSTSKERPPDLGYLARLAKPLRPTERVNKC | not soluble
4 | MNFNVIICGVGGQGVVLASRLLAITAMNSGFHVNTAETLGMSQREGSVVSHLQFGENIKSSLIPEGSTDLIIGLEVSEVARNIHFLKKDGKIITNSNLILPSARSSNEKYDSEKIINFIKEKVKSTICIDFSKIAKVAGNPKSMNVSVLSAAFYTGFLPLEYEDFLKTIESEIPEKYRDINLNATKLSAETISNMLEGHNE | not soluble
5 | MGSDKIHHHHHHMKYYFAPLEGITGYIYRNAYEKFFGGIDKYFTPFIVPTSSKSLTSRELKDVLPENNKVTFLVPQILTNDANKFIFTTEKLMNLGYSEVNLNLGCPSGTVVSKGRGAGFLKKRQELDEFLEKIFSKSPAKISIKTRIGKDSPDEFYELIKIFNKYPLEELIIHPRIQTDFYNNKPNMKVFKDALELSKSTVCYNGDIFQSNDYIKLIEEFSNLGVVMLGRGIISNPNIIKKINSNNVLEKEVLKKFHDAIYEEYQDILSGEKNVLFKMKEIWFYMIHLFKDSDKFAKKIRKANRLRDYEAIISALFGEFDLI | not soluble
6 | MGSDKIHHHHHHMGIRNSKTFTSTDIATYYDVSEDHYMYFWDLNQSHSLHYGYWDASTKTFREALANINRVLAEKASITAGTRVLDAGCGVGGSSIWLAKNKQANVTGITVSKKQAARANTSAAAVNPGGTAVFDVQDYTNTPYHSESFDVVWAIESVCHAANKEDFIKEAYRLLKPGGQLIMADFFIVKDGNADDQRSIDAWGHGWAVPFFEKKDAFQHMLLKAGFNTADMIDSTEHIRRSAKRLYYAFFPGWIISKLYNLVNRRTTEFSKNNVYTAYYQYKTLKKELWKYYIVHAKK | not soluble
7 | MNIRPLHDKLIVERLEVENKSEGGIVLTSQSVKKSNRGKVVAVGLGRPLKNGDRARMEVKTGDQIIFNDGYGVKTEKVDGKEYLILSESDVLAIVE | soluble
8 | MGSDKIHHHHHHMIPFHDRPFAEYLVEMLRGQGFRRILFLLGYLPDKVTEHFGDGSRFGVEIEYAVSPVEDETGTRLRRVKDRLDDIFVLLYCDNYWPMPFAAMWERYCRLGVEAMVTVYRNRDGYTRDNLRVDDDGLLALYDKSRTAPGLAGVDIGFFILTRAVIDLIPEGGNPSFEKSVYPVLVERRQLAAFETDHRYYSVGSHERLPLTEAFLARNKTVLLDRDGTLNLRMPRAEYVRSWADWQWLPGAREALAELARADYRIILITNQPGLARGALDQAALDAIHGRMIEETQAAGGRIDHIYYCPHNWDEGCDCRKPRPGMLFQAQRDFHLDLSRVTFIGDDDRDGEAAQAAGAPFLQVTESYSLLDAVHDLLAADHSNPVTGKCPD | not soluble
9 | MNQNKSNVPVSVAEEPDELSYYRLTLLSFLRESHPDLADDESFVATRSEQAAEAFSAAVRSGLTYDDAAQQANALLFQGLHFSPLDTLVTVLWNEFAAEVPEGSARSVALQLLPECRKVFAGYTLSDDFMFSPEFGQLYDELTGTVVIWLEENGL | not soluble
10 | MGHHHHHHGGHMSLNISDVAKITGLTSKAIRFYEEKGLVTPPMRSENGYRTYTQQHLNELTLLRQARQVGFNLEESGELVNLFNDPQRHSADVKRRTLEKVAEIERHIEELQSMRDQLLALANACPGDDSADCPIIENLSGCCHHRAGEGGS | soluble
11 | MPPFMSGLRAVSSLLSCRNAISRKLVSRSGIPRGSFVSDQIRRFGSLSGVERCSSNWLMSNDDARVSFRRLPGSVSLLQRRHFLGCGDGEEGGGELSKIYEERRVLGYTPEQMFNVVAAVDLYHGFVPWCQRSEVLKEYPDGSFDAELEIGFKFLVESYISHVESERPKWIKTTARDTGLFDHLINLWQFKPGPIPGTCDLHFHVDFKFNSPLYRQVASMFFKEVASRLVGAFSDRCRLVYGPGVRVDENAYEQRA | soluble
12 | QVQLQQPGSVLVRPGASVKLSCKASGFTFTSSWMHWAKQRPGQGLEWIGEIHPNSGNTHYNEKFKGKATLTVDTSSSTAYVDLSSLTSEDSAVYYCARMRYGDYYAMDNWGQGTSVTVSSAKTTAPPVYPLAPVCGDTTGSSVTLGCLVKGYFPESVTLLWNSGSLSSGVHTFPAVLQSDLYTLSSSVTVTSSTWPSQSITCNVAHPASSTKVDKKIEPRG | soluble
13 | NYGMVPFAGIPYYACPFGRDSIITSWFLLPYYPQYAEGTLKFFAKIQGKKFNPLNEEEPGKIPHEFRFGELSHSRKMPFAPYYGTVDATPLYVILAAEYLRWTGDRELIERLKPNLTAAVEWILRRLDEGGGYIRYKGGLLANQGWKDSKEGIPTEEGTPTKPPVALVEVQGYAYKALMDAASLGLTSLDPKMLKKEAEELKKRFNKDFWCDGFYALALDGDNVPSKVVSSNMGHLLFTGIAEHQEKIAERLFEEDMFSGWGIRTLSSKEKAYNPFSYHNGSIWPHDNAVIAIGLASIGEKEKARMLAEAIFKTAKFLPNSQLPELFSGLESEYPLLCPRANAPQAWSAASVFALLTALLGLKA | not soluble
14 | GSKPVSEKIMEIKLIKGPKGLGFSIAGGVGNQHWPGDNSIYVTKIIEGGAAHKDGKLQIGDKLLAVNNVALEEVTHEEAVTALKNTSDFVYLKVAKPTS | soluble
15 | MSLNNIDNIINFINKTPKSELHLHIEGSLEPELMFKLSKRNKIEIPFKSVEDIKSAYNFSNLDSFLKIYYEGSNVLITEEDFFDLTWEYILRCKKDNIVHTEIFFDPQSHTSRGIKFDIIINGIHKALAKANDEFGITSKIIMCFLRHLDEKLCFDVLKDAIQHKDKIIGVGLDSSEKGNPPKKFKRLFEEAIKEGFLTVAHAGEEGPPEYIWDSLNLLKVKRIDHGVQCLKDDDLVKNLKENNIPLTVCPLSNIKLCVFDKLENHNLKKMLEKGLRVMVNSDDPAYFGGYLNKNLIEISKALNLNLEQVKVLIQNSFKSSFLDKKSKSKWLSKVEGHHHHHH | soluble
16 | MIGYLRGLAVIVEDVEFARRLYKEGFYGRFLGYDKVKRDEVEKINAPLILGLYEALYLAEKGRLKVMGEDGREVAPEELAALGRERMRNFDEIYKIYKYFRDLGYVVKSGLKFGALFSVYEKGPGIDHAPMVVVFLEPDKGISATDITRGGRLSHSVRKTWTLATVLRQTGEVVLLGFGWARL | soluble
17 | MSLGKDVRFHTENWSYYPWRLWAEQFLQFEDWCLQASSKVPGIPLHVKRTVTFSTRQILDALSPSNFVLTNPDLLQETIRSNGQNLIRGTELAFQDFVEKITGSPPAGVENFIPGKQVAVTEGKVVYSNHLIELIQYTPQTEKVYKEPILILPAWIMKYYILDLLPENSLVNWLVRQGHTVFIVSWRNPTKEDRNIGLDDYYKLGAMDAINAVSNAIPHTKIHLMGYCLGGTLALLTAAAMAHDHDNRLKTLSLLAAQGDFIDAGELLLFITKSEVSFLKSMMWEQGYLDTKQMSGTFQMLRSYDLIWSKMVQDYMHGTQRGMIPLLAWNADATRMPYKMHSEYLEKLFLNNDFAEGRFILDGKPVVGENIRMPAFVVSTEKDHVAPWKSVYKTHLLINSDITFVLTNGGHNAGIVSEPGHEGRYYRIRERKMDSTYLDPTNWLKKAELREGSWWIAWHDWLVNHSSQKQVSAPKLDKNLPNAPGKYVLQKEGHHHHHH | soluble
18 | MPLGLFSSGKAQVLCDEKIPGGKKKEPKQLSENKCKGVTLKLDHTRVTIEKQIAEGGFAIVYVASDRKNNKFALKRQFTKDNEKQLEACCREHSFLKQCIGHKNIVEFVDSYTNCLGNGIWECMLLTEYHQKNVLQLMNERISQNQYLTNDEILSIFTDLCEAVSFIHNRPQPIIHRDLKVENVLISSHKPPHYVLCDFGSATTQILSVEKYGVEYVKSEVERNTTMCYRSPEMIDFYSGLEIGLKSDIWALGVLLYRLCFFCVPFEESPLAIQSVNYQFPSVPNIPDEIKVLIYMLLDIDVNRRPSIYQTSVLAFEANHRKPLSEEIQNKKCTDAVPSLKSCIQLMRDGSNPRNKRDSSPRNPEAPPIQSSSKMASLSQQVPSISNISMPSGSGTVETSVAPRLRPKATTVVPNVPSISPVPPVGLPHLRLPSKGSTDETDGSQVRKVPIDFHHRQSFSGEEQLKPAAEADSAGPLSCPLIKPTDLGFTDLDKPALPRDRAQTDGKRRLPHESDIIFQQQHRRNVSDTSQISRSAFKPYSSQQTTSKTSSQVVRSVEDMSQRQNGGSGEWNPFLVAPFSNNSISRKDGQESAFMMDDSHFGMVFDEIRRKEIPAELDSETSSIDSRDPFGAAPFDQLTVSTSSSAQPVSLPPGSVHLHTSIAPSPLLRHVLTKAPPPVPRRTTSRGFQV | not soluble
19 | SSTTTGPEAAPKPSAKSIYEQRKRYSTVVMADVSQYHVNHLVTFCLGEEDGVHTVEDASRKLAVMDSQGRVWAQEMLLRVSPSQVTLLDPVSKEELESYPLDAIVRCDAVMPRGRSRSLLLLVCQEPERAQPDVHFFQGLLLGAELIREDIQGALQNYRSGRGERRAAALRATQEELRRGASPAAETPPLQRRPSVRLVINTVEPSAVRGRPQVESIPETEEARKPDQARTTSSADPTSPDLGPRGPELAGLQAERDVDILNHVFDDVESFVSRLQKSAEATRVLEHRERGRRTRRRAAGEGLLTLRAKPPTEAEYTDVLQKIKYAFSLLARLRGNIANPSSPELLHFLFGPLQMIVNTSGGPEFAKSVRRPHLTLEAVTLLRDNVTPGENELWTSLGDSWTCPGVELPPEEGSPYSPEFYNGWEPPATDPQGRPWEDPVEKQLQHEKRRRQQSAPQVAVNGKIQNWKLSPS | soluble
20 | MAKYQSMLVVIDPNQDDQPALRRAVYLHQRIGGRIKAFLPIYDFSYEMTTLLSPDERTAMRQGVIAQRTAWIREQAKFYLESGVPIDVKVVWHNRPFEAIIQEVVSEKHDLLLKMAHQHDKLEAVIFTPTDWHLLRKCPCPVWMVKDQPWPEGGKALVAVNLASEENYHNTLNEKLVRETLSLAEEVNHTEVHLIGAYPVTPINIAIELPDFDPSVYNDAIRGQHLLAMKALRQKFGIDEKFTHVEKGLPEEVIPDLAEHLQAGIVVLGTVGRTGLSAAFLGNTAEQVVDHLRCDLLVLKPEAYQTPVELDDDDDD | not soluble
